Assay results taken from US12269859B2, “Synthetic immune receptors and methods of use thereof” (Angeles Therapeutics, Inc., priority 2016, dated 2025).

Test system: target antigen-expressing cell line
Test: Jurkat NFAT-GFP assay, coculture with target cell lines expressing the respective target antigen (summary Table 10A)
Type: cell-based, human
Design: key: The signs +/−, +, 2+ etc. after the name of the cell lines indicate the relative degree of positivity on the Jurkat-NFAT-GFP assay as measured by the % GFP positive cells; +: relative degree of positivity on the Jurkat-NFAT-GFP assay as measured by the % GFP positive cells; 2+: relative degree of positivity on the Jurkat-NFAT-GFP assay as measured by the % GFP positive cells
Settings: relative % GFP positive cells; for NFAT-GFP ASSAY Positive Cell lines: RAJI: SIR-expressing Jurkat-NFAT-GFP cells cocultured with RAJI
Summary of the method: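 Jurkat cells carrying an NFAT-driven GFP reporter and lentivirally expressing a SIR were cocultured with antigen-bearing target cells (E:T ~1:2) for about 4–18 h. GFP induction read by flow cytometry as % GFP+ cells, scored positive and graded (+/−, +, 2+) against parental Jurkat-NFAT-GFP cells.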

B1: 092515-Y08 (protein)
chain: MALPVTALLLPLALLLHAARPDEIVLTQSPATLSLSPGERATLSCSASSSVSYMHWYQQKPGQAPRLLIYDTSKLASGIPARFSGSGSGTDFTLTISSLEPEDVAVYYCFQGSVYPFTFGQGTKLEIKRGGGGSGGGGSGGGGSQVQLQESGPGLVKPSQTLSLTCTVSGGSISTSGMGVGWIRQHPGKGLEWIGHIWWDDDKRYNPALKSRVTISVDTSKNQFSLKLSSVTAADTAVYYCARMELWSYYFDYWGQGTLVTVSSLESWKDASGWSCTDPQPLKEQPALNDSRYCLSSRLRVSATFWQNPRNHFRCQVQFYGLSENDEWTQDRAKPVTQIVSAEAWGRADCGFTSESYQQGVLSATILYEILLGKATLYAVLVSALVLMAMVKRKDSRGRAKRSGSGATNFSLLKQAGDVEENPGPTSMALPVTALLLPLALLLHAARPDIQMTQTTSSLSASLGDRVTISCRASQDISKYLNWYQQKPDGTVKLLIYHTSRLHSGVPSRFSGSGSGTDYSLTISNLEQEDIATYFCQQGNTLPYTFGGGTKLEITTREQKLISEEDLSSCDVKLVEKSFETDTNLNFQNLSVIGFRILLLKVAGFNLLMTLRLWSSSSRAKRSGSGVKQTLNFDLLKLAGDVESNPGPSRGHMTEYKPTVRLATRDDVPRAVRTLAAAFADYPATRHTVDPDRHIERVTELQELFLTRVGLDIGKVWVADDGAAVAVWTTPESVEAGAVFAEIGPRMAELSGSRLAAQQQMEGLLAPHRPKEPAWFLATVGVSPDHQGKGLGSAVVLPGVEAAERAGVPAFLETSAPRNLPFYERLGFTVTADVEVPEGPRTWCMTRKPGA
modifications: Synthetic Immune Receptor (SIR)
SIR-expressing Jurkat-NFAT-GFP cells cocultured with NALM6
  NFAT-GFP ASSAY Positive Cell lines: NALM6: RAJI (+), NALM6 (+)
  NFAT-GFP ASSAY Positive Cell lines: RAJI: RAJI (+), NALM6 (+)

B2: 060816-H05 (protein)
chain: MALPVTALLLPLALLLHAARPDEIVLTQSPATLSLSPGERATLSCSASSSVSYMHWYQQKPGQAPRLLIYDTSKLASGIPARFSGSGSGTDFTLTISSLEPEDVAVYYCFQGSVYPFTFGQGTKLEIKRGGGGSGGGGSGGGGSQVQLQESGPGLVKPSQTLSLTCTVSGGSISTSGMGVGWIRQHPGKGLEWIGHIWWDDDKRYNPALKSRVTISVDTSKNQFSLKLSSVTAADTAVYYCARMELWSYYFDYWGQGTLVTVSSTREQKLISEEDGSGTPFPSLAPPIMLLVDGKQQMVVVCLVLDVAPPGLDSPIWFSAGNGSALDAFTYGPSPATDGTWTNLAHLSLPSEELASWEPLVCHTGPGAEGHSRSTQPMHLSGEASTARTCPQEPLRGTPGGALWLGVLRLLLFKLLLFDLLLTCSCLCDPAGPLPSPATTTRLRALGSHRLHPATETGGREATSSPRPQPRDRRWGDTPPGRKPGSPVRAKRSGSGVKQTLNFDLLKLAGDVESNPGPSRGHMTEYKPTVRLATRDDVPRAVRTLAAAFADYPATRHTVDPDRHIERVTELQELFLTRVGLDIGKVWVADDGAAVAVWTTPESVEAGAVFAEIGPRMAELSGSRLAAQQQMEGLLAPHRPKEPAWFLATVGVSPDHQGKGLGSAVVLPGVEAAERAGVPAFLETSAPRNLPFYERLGFTVTADVEVPEGPRTWCMTRKPGA
modifications: Synthetic Immune Receptor (SIR)
  NFAT-GFP ASSAY Positive Cell lines: RAJI: RAJI (+)

B3: 102616-D06 (protein)
chain: MALPVTALLLPLALLLHAARPDVQMIQTPDSLAVSLGQRATISCRASESVDNYGISFMHWYQQKPGQSPKLLIYRASNLESGIPARFSGSGSRTDFTLTINPVETDDVATYYCQQNNKDPPTFGGGTKLEIKLEGKPIPNPLLGLDSTGSGEDLKNVFPPEVAVFEPSKAEIAHTQKATLVCLATGFYPDHVELSWWVNGKEVHSGVCTDPQPLKEQPALNDSRYCLSSRLRVSATFWQNPRNHFRCQVQFYGLSENDEWTQDRAKPVTQIVSAEAWGRADCGITSASYHQGVLSATILYEILLGKATLYAVLVSALVLMAMVKRKDSRGRAKRSGSGATNFSLLKQAGDVEENPGPTSMDWIWRILFLVGAATGAHSFEGGGGSQVQLQQSGAELVKPGASVKISCKASGYAFSSYWMNWVKQRPGKGLEWIGQIYPGDGDTTYNGKFKGKATLTADKSSSTVYMQLNSLTSEDSAVYFCVRYYYGSSGYFDYWGQGTTLTVSSTREQKLISEEDGSGIQNPDPAVYQLRDSKSSDKSVCLFTDFDSQTNVSQSKDSDVYITDKCVLDMRSMDFKSNSAVAWSNKSDFACANAFNNSIIPEDTFFPSSDVPCDVKLVEKSFETDTNLNFQNLSVIGFRILLLKVAGFNLLMTLRLWSSRAKRSGSGVKQTLNFDLLKLAGDVESNPGPSRGHMTEYKPTVRLATRDDVPRAVRTLAAAFADYPATRHTVDPDRHIERVTELQELFLTRVGLDIGKVWVADDGAAVAVWTTPESVEAGAVFAEIGPRMAELSGSRLAAQQQMEGLLAPHRPKEPAWFLATVGVSPDHQGKGLGSAVVLPGVEAAERAGVPAFLETSAPRNLPFYERLGFTVTADVEVPEGPRTWCMTRKPGA
modifications: Synthetic Immune Receptor (SIR)
SIR-expressing Jurkat-NFAT-GFP cells cocultured with LAN5
  NFAT-GFP ASSAY Positive Cell lines: LAN5: LAN5 (+)

B4: 052316-J03 (protein)
chain: MALPVTALLLPLALLLHAARPDEIVLTQSPATLSLSPGERATLSCSASSSVSYMHWYQQKPGQAPRLLIYDTSKLASGIPARFSGSGSGTDFTLTISSLEPEDVAVYYCFQGSVYPFTFGQGTKLEIKRGGGGSGGGGSGGGGSQVQLQESGPGLVKPSQTLSLTCTVSGGSISTSGMGVGWIRQHPGKGLEWIGHIWWDDDKRYNPALKSRVTISVDTSKNQFSLKLSSVTAADTAVYYCARMELWSYYFDYWGQGTLVTVSSTREQKLISEEDGSGIQNPDPAVYQLRDSKSSDKSVCLFTDFDSQTNVSQSKDSDVYITDKTVLDMRSMDFKSNSAVAWSNKSDFACANAFNNSIIPEDTFFPSPESSCDVKLVEKSFETDTNLNFQNLSVIGFRILLLKVAGFNLLMTLRLWSSRAKRSGSGVKQTLNFDLLKLAGDVESNPGPSRGHMTEYKPTVRLATRDDVPRAVRTLAAAFADYPATRHTVDPDRHIERVTELQELFLTRVGLDIGKVWVADDGAAVAVWTTPESVEAGAVFAEIGPRMAELSGSRLAAQQQMEGLLAPHRPKEPAWFLATVGVSPDHQGKGLGSAVVLPGVEAAERAGVPAFLETSAPRNLPFYERLGFTVTADVEVPEGPRTWCMTRKPGA
modifications: Synthetic Immune Receptor (SIR)
  NFAT-GFP ASSAY Positive Cell lines: RAJI: RAJI (+)

B5: 041216 C02 (protein)
chain: MALPVTALLLPLALLLHAARPDEIVLTQSPATLSLSPGERATLSCSASSSVSYMHWYQQKPGQAPRLLIYDTSKLASGIPARFSGSGSGTDFTLTISSLEPEDVAVYYCFQGSVYPFTFGQGTKLEIKRGGGGSGGGGSGGGGSQVQLQESGPGLVKPSQTLSLTCTVSGGSISTSGMGVGWIRQHPGKGLEWIGHIWWDDDKRYNPALKSRVTISVDTSKNQFSLKLSSVTAADTAVYYCARMELWSYYFDYWGQGTLVTVSSLEGKPIPNPLLGLDSTGSGEDLKNVFPPEVAVFEPSKAEIAHTQKATLVCLATGFYPDHVELSWWVNGKEVHSGVCTDPQPLKEQPALNDSRYCLSSRLRVSATFWQNPRNHFRCQVQFYGLSENDEWTQDRAKPVTQIVSAEAWGRADCGITSASYHQGVLSATILYEILLGKATLYAVLVSALVLMAMVKRKDSRGRAKRSGSGATNFSLLKQAGDVEENPGPTSMALPVTALLLPLALLLHAARPDIQMTQSPATIENTSLSASVGDRVTITCRASQGISSWLTWYQQKPEKAPKSLIYAASSLQSGVPSRFSGSGSGTDFTLTISSLQPEDFATYYCQQYDSYPITFGQGTRLEIKGGGGSGGGGSGGGGSQVQLQQWGAGLLKPSETLSLTCAVYGGSFSAYYWSWIRQPPGKGLEWIGDINHGGGTNYNPSLKSRVTISVDTSKNQFSLKLNSVTAADTAVYYCASLTAYWGQGSLVTVSSTREQKLISEEDGSGIQNPDPAVYQLRDSKSSDKSVCLFTDFDSQTNVSQSKDSDVYITDKCVLDMRSMDFKSNSAVAWSNKSDFACANAFNNSIIPEDTFFPSSDVPCDVKLVEKSFETDTNLNFQNLSVIGFRILLLKVAGFNLLMTLRLWSSRAKRSGSGVKQTLNFDLLKLAGDVESNPGPSRGHMTEYKPTVRLATRDDVPRAVRTLAAAFADYPATRHTVDPDRHIERVTELQELFLTRVGLDIGKVWVADDGAAVAVWTTPESVEAGAVFAEIGPRMAELSGSRLAAQQQMEGLLAPHRPKEPAWFLATVGVSPDHQGKGLGSAVVLPGVEAAERAGVPAFLETSAPRNLPFYERLGFTVTADVEVPEGPRTWCMTRKPGA
modifications: Synthetic polynucleotide encoding a SIR
SIR-expressing Jurkat-NFAT-GFP cells cocultured with L428
  NFAT-GFP ASSAY Positive Cell lines: L428: L428 (+/−)
